B1: Calcium-binding and coiled-coil domain-containing protein 2 (Homo sapiens), Q13137 (parent)
chain: MEETIKDPPTSAVLLDHCHFSQVIFNSVEKFYIPGGDVTCHYTFTQHFIPRRKDWIGIFRVGWKTTREYYTFMWVTLPIDLNNKSAKQQEVQFKAYYLPKDDEYYQFCYVDEDGVVRGASIPFQFRPENEEDILVVTTQGEVEEIEQHNKELCKENQELKDSCISLQKQNSDMQAELQKKQEELETLQSINKKLELKVKEQKDYWETELLQLKEQNQKMSSENEKMGIRVDQLQAQLSTQEKEMEKLVQGDQDKTEQLEQLKKENDHLFLSLTEQRKDQKKLEQTVEQMKQNETTAMKKQQELMDENFDLSKRLSENEIICNALQRQKERLEGENDLLKRENSRLLSYMGLDFNSLPYQVPTSDEGGARQNPGLAYGNPYSGIQESSSPSPLSIKKCPICKADDICDHTLEQQQMQPLCFNCPICDKIFPATEKQIFEDHVFCHSL
partner: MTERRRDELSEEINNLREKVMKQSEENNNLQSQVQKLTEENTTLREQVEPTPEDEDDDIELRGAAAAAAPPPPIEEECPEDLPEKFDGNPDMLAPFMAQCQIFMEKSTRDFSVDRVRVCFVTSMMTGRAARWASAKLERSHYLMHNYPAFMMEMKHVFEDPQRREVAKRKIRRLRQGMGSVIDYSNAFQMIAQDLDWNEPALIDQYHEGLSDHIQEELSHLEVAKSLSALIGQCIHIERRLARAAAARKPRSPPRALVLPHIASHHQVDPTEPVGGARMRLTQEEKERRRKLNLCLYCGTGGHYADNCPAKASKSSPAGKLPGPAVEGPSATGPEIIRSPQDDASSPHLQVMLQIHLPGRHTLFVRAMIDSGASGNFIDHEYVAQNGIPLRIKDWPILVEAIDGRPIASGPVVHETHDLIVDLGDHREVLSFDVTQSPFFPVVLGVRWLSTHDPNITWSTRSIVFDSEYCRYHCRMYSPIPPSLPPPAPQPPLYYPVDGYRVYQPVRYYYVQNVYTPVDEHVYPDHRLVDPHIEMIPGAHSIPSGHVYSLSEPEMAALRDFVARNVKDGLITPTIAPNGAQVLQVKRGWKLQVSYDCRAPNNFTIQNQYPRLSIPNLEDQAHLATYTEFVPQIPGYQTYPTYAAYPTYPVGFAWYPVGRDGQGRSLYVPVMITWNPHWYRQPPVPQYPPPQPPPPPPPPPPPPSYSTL
B2: Ligand of Numb protein X 2 (Homo sapiens), Q8N448 (parent)
chain: MGTTSDEMVSVEQTSSSSLNPLCFECGQQHWTRENHLYNYQNEVDDDLVCHICLQPLLQPLDTPCGHTFCYKCLRNFLQEKDFCPLDRKRLHFKLCKKSSILVHKLLDKLLVLCPFSSVCKDVMQRCDLEAHLKNRCPGASHRRVALERRKTSRTQAEIENENGPTLLDPAGTLSPEADCLGTGAVPVERHLTSASLSTWSEEPGLDNPAFEESAGADTTQQPLSLPEGEITTIEIHRSNPYIQLGISIVGGNETPLINIVIQEVYRDGVIARDGRLLAGDQILQVNNYNISNVSHNYARAVLSQPCNTLHLTVLRERRFGNRAHNHSDSNSPREEIFQVALHKRDSGEQLGIKLVRRTDEPGVFILDLLEGGLAAQDGRLSSNDRVLAINGHDLKYGTPELAAQIIQASGERVNLTIARPGKPQPGNTIREAGNHSSSSQHHTPPPYYSRPSSHKDLTQCVTCQEKHITVKKEPHESLGMTVAGGRGSKSGELPIFVTSVPPHGCLARDGRIKRGDVLLNINGIDLTNLSHSEAVAMLKASAASPAVALKALEVQIVEEATQNAEEQPSTFSENEYDASWSPSWVMWLGLPSTLHSCHDIVLRRSYLGSWGFSIVGGYEENHTNQPFFIKTIVLGTPAYYDGRLKCGDMIVAVNGLSTVGMSHSALVPMLKEQRNKVTLTVICWPGSLV
partner: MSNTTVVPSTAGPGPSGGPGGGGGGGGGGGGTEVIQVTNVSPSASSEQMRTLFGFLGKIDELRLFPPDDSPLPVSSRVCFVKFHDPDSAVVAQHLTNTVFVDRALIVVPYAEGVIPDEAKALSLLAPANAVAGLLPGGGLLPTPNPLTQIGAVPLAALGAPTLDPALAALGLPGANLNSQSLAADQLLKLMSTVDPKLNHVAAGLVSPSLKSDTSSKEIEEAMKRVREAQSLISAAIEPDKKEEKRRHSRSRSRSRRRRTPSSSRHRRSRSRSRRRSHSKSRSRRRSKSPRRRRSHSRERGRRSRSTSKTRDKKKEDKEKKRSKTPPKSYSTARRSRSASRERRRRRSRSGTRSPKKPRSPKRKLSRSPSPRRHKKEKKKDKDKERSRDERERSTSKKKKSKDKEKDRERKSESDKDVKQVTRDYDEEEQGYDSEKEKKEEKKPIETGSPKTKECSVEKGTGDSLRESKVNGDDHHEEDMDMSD
B3: UPF0462 protein C4orf33 (Homo sapiens), Q8N1A6 (parent)
chain: MDFKIEHTWDGFPVKHEPVFIRLNPGDRGVMMDISAPFFRDPPAPLGEPGKPFNELWDYEVVEAFFLNDITEQYLEVELCPHGQHLVLLLSGRRNVWKQELPLSFRMSRGETKWEGKAYLPWSYFPPNVTKFNSFAIHGSKDKRSYEALYPVPQHELQQGQKPDFHCLEYFKSFNFNTLLGEEWKQPESDLWLIEKCDI
B4: Dendritic cell nuclear protein 1 (Homo sapiens), Q8TF63 (parent)
chain: MHYGAATHIQNSRSHGLETVPGHQRLERGAGGETPEFPGCHSPAPPENFGNELLPLSAPLQGLSEGLYPPGRNKTLPAGVLREGAVQFLHRGLCNSNLSSEASARPSGTQDELHSSRRKTGQTRREGARKHLVCSFRLYPFTVHTVSPGNSHLALYQVFKAVKLCPSETSFFLSRKSLKSSDPWHPPSLSPNSWNRQAGFRAWSSHLISLSLTCSDSQSRRVSSSQQPPLHSLSSHRRAAHVPE
B5: Ornithine decarboxylase antizyme 3 (Homo sapiens), Q9UMX2 (parent)
chain: MPCKRCRPSVYSLSYIKRGKTRNYLYPIWSPYAYYLYCYKYRITLREKMLPRCYKSITYKEEEDLTLQPRSCLQCSESLVGLQEGKSTEQGNHDQLKELYSAGNLTVLATDPLLHQDPVQLDFHFRLTSQTSAHWHGLLCDRRLFLDIPYQALDQGNRESLTATLEYVEEKTNVDSVFVNFQNDRNDRGALLRAFSYMGFEVVRPDHPALPPLDNVIFMVYPLERDVGHLPSEPP
partner: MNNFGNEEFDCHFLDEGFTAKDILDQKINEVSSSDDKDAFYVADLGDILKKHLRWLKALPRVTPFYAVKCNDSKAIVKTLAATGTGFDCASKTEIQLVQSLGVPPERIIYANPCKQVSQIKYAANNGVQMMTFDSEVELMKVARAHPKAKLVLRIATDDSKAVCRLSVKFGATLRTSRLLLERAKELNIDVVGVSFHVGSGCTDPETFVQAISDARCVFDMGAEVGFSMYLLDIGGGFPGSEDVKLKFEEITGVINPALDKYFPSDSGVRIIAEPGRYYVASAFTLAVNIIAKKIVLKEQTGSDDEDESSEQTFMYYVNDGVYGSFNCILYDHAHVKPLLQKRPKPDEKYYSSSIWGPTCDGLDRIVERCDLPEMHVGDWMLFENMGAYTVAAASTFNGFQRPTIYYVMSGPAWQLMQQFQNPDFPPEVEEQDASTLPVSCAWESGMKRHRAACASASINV
B6: Ubiquitin thioesterase OTUB2 (Homo sapiens), Q96DC9 (parent)
chain: MSETSFNLISEKCDILSILRDHPENRIYRRKIEELSKRFTAIRKTKGDGNCFYRALGYSYLESLLGKSREIFKFKERVLQTPNDLLAAGFEEHKFRNFFNAFYSVVELVEKDGSVSSLLKVFNDQSASDHIVQFLRLLTSAFIRNRADFFRHFIDEEMDIKDFCTHEVEPMATECDHIQITALSQALSIALQVEYVDEMDTALNHHVFPEAATPSVYLLYKTSHYNILYAADKH
partner: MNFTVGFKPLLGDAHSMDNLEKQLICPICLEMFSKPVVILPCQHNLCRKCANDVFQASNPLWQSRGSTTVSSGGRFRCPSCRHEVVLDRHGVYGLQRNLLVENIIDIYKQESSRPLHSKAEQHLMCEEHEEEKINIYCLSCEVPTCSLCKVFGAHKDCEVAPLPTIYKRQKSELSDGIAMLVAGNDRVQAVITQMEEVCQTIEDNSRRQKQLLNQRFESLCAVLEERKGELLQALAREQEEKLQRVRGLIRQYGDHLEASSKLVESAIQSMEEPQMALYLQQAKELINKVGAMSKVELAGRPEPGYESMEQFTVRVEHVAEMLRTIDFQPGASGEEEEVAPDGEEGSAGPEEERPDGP

Variants of: B1
Details: with peg10_human PEG10, Q86TG7

effect of a mutation on the interaction | Variant
with no effect | T273A
with no effect | P389A

Variants of: B2
Details: with srs11_human SRSF11, Q05519

effect of a mutation on the interaction | Variant
disrupting interaction strength | Y266C
with no effect | S198P
with no effect | S141A

Variants of: B3
Details: with vac14_human VAC14, Q08AM6
vac14_human VAC14, Q08AM6, sequence (Q08AM6 whole entry): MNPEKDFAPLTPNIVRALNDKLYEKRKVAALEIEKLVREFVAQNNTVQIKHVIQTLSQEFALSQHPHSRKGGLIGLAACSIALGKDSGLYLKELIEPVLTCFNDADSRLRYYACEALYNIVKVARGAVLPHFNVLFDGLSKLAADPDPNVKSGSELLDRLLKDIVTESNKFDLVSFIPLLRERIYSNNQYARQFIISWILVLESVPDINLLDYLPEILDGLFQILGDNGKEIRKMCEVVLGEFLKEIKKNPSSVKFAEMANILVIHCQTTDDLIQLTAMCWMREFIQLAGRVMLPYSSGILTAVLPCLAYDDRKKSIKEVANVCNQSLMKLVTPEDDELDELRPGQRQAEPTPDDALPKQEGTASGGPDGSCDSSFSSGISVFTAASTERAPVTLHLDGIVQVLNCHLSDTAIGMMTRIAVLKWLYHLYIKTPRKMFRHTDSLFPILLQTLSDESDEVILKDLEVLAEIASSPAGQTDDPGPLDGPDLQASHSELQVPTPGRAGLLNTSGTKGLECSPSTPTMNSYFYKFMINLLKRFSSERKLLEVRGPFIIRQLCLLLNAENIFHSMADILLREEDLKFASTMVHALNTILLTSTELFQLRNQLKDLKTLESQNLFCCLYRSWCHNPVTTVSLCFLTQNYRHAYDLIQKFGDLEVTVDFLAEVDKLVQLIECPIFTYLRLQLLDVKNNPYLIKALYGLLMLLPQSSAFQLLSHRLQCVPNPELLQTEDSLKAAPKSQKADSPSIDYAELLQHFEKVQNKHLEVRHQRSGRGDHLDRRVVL

effect of a mutation on the interaction | Variant
with no effect | H166R

Variants of: B4
Details: with mdfi_human MDFI

effect of a mutation on the interaction | Variant
with no effect | P183T
with no effect | S135C

Variants of: B5
Details: with dcor_human ODC1, P11926

effect of a mutation on the interaction | Variant
disrupting interaction strength | R193Q
disrupting interaction strength | V174A

Variants of: B6
Details: with tri54_human TRIM54, Q9BYV2

effect of a mutation on the interaction | Variant
with no effect | V78I

Source: IntAct's records for PubMed 31515488
